Molecular target: the molecule itself
Experiment: crystal structure; microbatch crystallization of His-SUMO tagged P. shigelloides NagK (5 mg/ml), Morpheus I screen with matrix microseeding; apo structure PDB 7P7I, 2 protein monomers in the a.u.

B1: N-acetylglucosamine kinase (NagK) from Plesiomonas shigelloides (enzyme)
chain: MYYGFDIGGTKIEFGAFDADLVRVARERVATPTESYAAFLDAIVTLVNNADAEFGVKGTVGIGIPGIADVETGKLLTSNIPAAMGHTLQRDLEERLQRPVKIENDANCFALSEAWDEDLRGEPSVLGLILGTGVGGGLIFNGKVHSGRANIAGEIGHTRLPYDALKLLGMENAPIFPCGCKNSGCIDNYLSGRGFEQLYDHYFSEKLSAPEIIAHYEQGERRAVQHVERFMELLAICLANIFTCLDPHVVVLGGGLSNFELIYQELPKRLPAHLLHVAKLPKIIKARHGDAGGVRGAAFLNL
notes: N-acetylglucosamine kinase NagK of Plesiomonas shigelloides, codon-optimized nagK gene in pOPINS3C; also called PsNagK; P. shigelloides NagK; source: E. coli BL21 (DE3), purified (HisTrap, Superdex 200 size exclusion); not shown: polyhistidine, N-terminal, kept; SUMO, N-terminal, kept
  stoichiometry N: 2
